Results on 22 sequences are retold here after the DeepSol protein solubility set.

The data set can be described thus: soluble on expression in E. coli; label from the status in PepcDB or PDB records.
As to “MADKKEKLFSDFSPVSTEQWMEKVTADLKGADFEKKLVWKTNEGFKVKPFYRMEDLEGLKTTDALPGEFPYLRGTKKSNNEWLVRQEIKVECPKEANAKALDILNKGVDSLSFHVKAKELNAEYIETLLNGIQAECVELNFSTCQGHVVELAGLLVAYFQKKDYDVKKLRGSVNYDFFNKMLTRGKEKGDMVQTAKALIEAIQPLPFYRVLNVNAISLNNAGAYISQELGYALAWGNEYMNQLTDAGIPAATVAKKIKFNFGISSNYFLEIAKFRAARMLWANIVASYHPECLRDCDNKGANGECRCAAKMAVHAETSTFNLTLFDAHVNLLRTQTEAMSAALAGVDSMTVVPFDKTYSTPDEFSERLARNQQLLLKEESHFDKVIDPAAGSYYIENLTVSIAKQAWELFLAVEEAGGFYAALKAGTVQAAVNESNKARHKAVAQRREVLLGTNQFPNFNEKAGEKQPIEAKCCCGGDAHTCEKDVDTLVFDRAASEFEALRLETEASGKRPKAFMLTIGNLAMRQARAQYSCNFLACAGYEVIDNLGFETVEAGVEAAMAAKADIVVLCSSDDEYAEYAVPAFKALDGRAMFIVAGAPACMDELKAAGIENFIHVRVNVLDTLKEFNAKLLK”, the “soluble on expression in E. coli” value was “not soluble”.
On to “MADLSFIEDTVAFPEKEEDEEEEEEGVEWGYEEGVEWGLVFPDANGEYQSPINLNSREARYDPSLLDVRLSPNYVVCRDCEVTNDGHTIQVILKSKSVLSGGPLPQGHEFELYEVRFHWGRENQRGSEHTVNFKAFPMELHLIHWNSTLFGSIDEAVGKPHGIAIIALFVQIGKEHVGLKAVTEILQDIQYKGKSKTIPCFNPNTLLPDPLLRDYWVYEGSLTIPPCSEGVTWILFRYPLTISQLQIEEFRRLRTHVKGAELVEGCDGILGDNFRPTQPLSDRVIRAAFQLEHHHHHH”, for which the “soluble on expression in E. coli” value is recorded as “soluble”.
With “MAEKKKEEKESKETEVFILKLENTTVTFTNPKLGDEVTIASLNLTNPTKDRYAFKIKCTSNQLFKIKSPVGYINPEESLTIPVYHYPATVIPENNKHYFVVYYIKAANTVKEKIPVRDLWKAAASSEGTRRVFIDFKKPELPPTEAEDGKMGDDKKKGKKDDKKEEKDGKKDEKKDGSDEEGKKDEGKGEKKEEKKDDKKDDKKDDKKEEKKEDGAKK”, the “soluble on expression in E. coli” value is listed as “soluble”.
Turning to “MAEKSYTRFVINGKEQELKFCLQALRLLDENGGPMQFVSQTMQGGITNFTDVVYYALIHTNEGITYEAVQKEIENMFNAEKLDLDEILKYNKAVVLNSFFFQKTVKKLLGTMTAEQQKSFENLYA”, the “soluble on expression in E. coli” value is recorded as “not soluble”.
Consider “MAEKVAVIVGPTAVGKTKLGIALAKKLGGEVISGDSMQIYKGMDIGTAKVKPDEMEGIPHHLLDIKEPCEPFSVVEFQRLCRALITEISARGRLPIIVGGTGLYIQAALYDYQFSAAPSDEAYRRALKQLAAEQGAEALHRRLEAVDPISAARIHPHNIRRVIRALEVYHCTGKPFSEWQQTEKRLLYEAAIVGLTAEREALYRRINERVDEMIAAGLIEEARALYDRGLRDCQAVQAIGYKELYDYFDGRVSLDEAIEQLKQNSRRYAKRQLTWFRNQMPVKWFDMTDAGQFAAKVQEISRYVAGKLQLEANI”, for which the “soluble on expression in E. coli” value was “not soluble”.
As to “MAELISFVVPTQSDKVLLVWDLSTGPPAEALSHSLFTVFSQFGLLYSVRVFPNAAVARPGFYAIIKFYSSRDAQRAQKACDGKPLFQTSPVKVRLGTRHKALQHQAFALNSSRCQELANYYFGFSGWSKRIIKLQELSGLEDAALAVPMQKGSPQFLCAVEVVLPPYGCRSPGVGISEEPLRQLEEGQSSFLMKRKTAQKLAFQAAVSDAFQKLTIVVLESGRIAVEYRPTAEDLDARSEEELQNLIQVSCSSWSQSSQREEECLSDFSLEEEDLKLCDPH”, the “soluble on expression in E. coli” value is recorded as “soluble”.
For “MAEPVQEELSVLAAIFCRPHEWEVLSRSETDGTVFRIHTKAEGFMDADIPLELVFHLPVNYPSCLPGISINSEQLTRAQCVTVKEKLLEQAESLLSEPMVHELVLWIQQNLRHILSQPETG” the value was “soluble”; for “MAESDWDTVTVLRKKGPTAAQAKSKQAILAAQRRGEDVETSKKWAAGQNKQHSITKNTAKLDRETEELHHDRVTLEVGKVIQRGRQSKGLTQKDLATKINEKPQVIADYESGRAIPNNQVLGKIERAIGLKLRGKDIGKPIEKGPKAK”, “soluble”.
To “MAESPSQSDAQLVAHQSPGQQADSDLTSLVFDYKSVLCVYFFSHLLTVLKTNAIAEMSQQVQMGMENMLKMVYEIDQNSVGIKEEIEKSKDFAMEKKRILEEEKDQFQKAAYTILDMLSNSRG” belongs “soluble”; to “MAESSVTFTISTDGGGKINVIYDGSHKTNATDSSVNSESVTPCESLDTTKESEMLKAGLRRRAPSISTESSVTFSSISDFEDLNLRCSTPLVCDDDTNSNSDASFASCVSEVSEMSIKTTSSQETVTSASGLKESKPMEKMEEKREVRMKSYEQVNKERYGGWTEVVNWRAAKKPQSVAPSQSSTKKTLSNNGTTTDHGITSASRRTPNSTHVASKPQLNTRATSVQGSAPSSGSKSRIPSLANRQVYNNSPQLFHPFPPSRCNSSNGSYASTVTASPSVASYSPNPSQPPPPVAVAKLNMKMTITTDSNGKMSVHFSNSNSSESWSINGLLGNSDKINVSKMF”, “not soluble”.
Take “MAETEILKCIGCGAPLQSEDLDAPGYVPESSLYKEDVICKRCFRLKNYNEVQDVGLDSEDFLNLLNGLADKKGIVVNVVDVFDFEGSFINAIKRIVGNKQIILVGNKLDLLPKQINKRRVKEWLKKTARKYGLDAEDVILISAEKNEGIEDLLNAINTLRNNDDVYIVGTTNVGKSTLINKLIERSVGEKNVVTTSRFPGTTLDMIDIPLDDTSFMYDTPGVIQEHQMTHYVTEKELKTIMPKKEVKQRVYQLNEGQTLFFGGLARIDYISGGKRPLVCYFSNDLNIHRTKTENANELWRNQLGDVLSPPNNPDHFDLQNVKAVRLETGKEKRDVMISGLGFITIDEGAKIIVRVPKNVDVVLRNSIMLEHHHHHH”: the “soluble on expression in E. coli” value is given as “not soluble”.
To “MAETVGMILCGGFGKRLRPLTEKIPKPLIEIKEGYTILDKQLFDLKNAGINTVYLLTGFLGERIEERYGDNYKGLRIEYVREEKPLGTLNAIRLGMEAIDGEKQCIIRNGDVVADLNIKKMIHLGEMSDYPLTMFITRMQSPYGIVETSGDKIINFREKPLLDYYINAGVYFSKGNLDFGDFESGDIEKTLFPLMAKENKLGYYREDGLFWMAIDTSKELEEIRKEYRNREDKPWGYEKILINTEKYLTKELFIREGYRTSFHYHEEKDETMYIISGSGYIEFDNRKEYFSKNDTIRIEPGERHSIVAMENTVLHEVSTPHLNDTVRVQDYYTRLEHHHHHH” belongs “soluble”.
For “MAEVKKSNAPEFKGAETLYLIDIPQPDGKTTKTVRFFNQTSGSRSIEAGEIELKTKDKSGSDYGDVTQSASIEGICTEGDEGLDYVEEAILNKVLVRIHEVNLRSATASEFKVKSGTYMLNSLELSHENEEYSKYSIGLKLNGKISKGTLNKVPEGAPSGDVATPGTE” the value was “not soluble”.
To “MAEVRARVDFKVGAKSNIDAEILSFRGLKTDKEHVAVIFKQADQTQDTPLVRMHSECLTGDVFHSSRCDCGEQLEETIQRMGESGGVILYLRQEGRGIGLYNKIDAYRLQSQGMNTYEANNHLGFDDDLRDFTEAAQMLEALGIKKIRLVTNNPKKIRELAEYGIEIVEVVNTSAHIKDGNENYLRAKVSHGKHNLKVLEHHHHHH” belongs “soluble”.
As for “MAEYSMKELIEWNEKIEEIARAEGLDYYEQEFEICSYEDMIAYETYVGMPSHYPHWSYGKNYERIKTLYKYNLTGLPYEMVINSDPCIAYLMKDNTLLLQILTMAHVYGHNDFFKNNRLFKLGTRAKDTVDMFKNHADRIREYIQDPGIGYAKVEKILNAAHAIRYQISRNIGVRVLSQEEKKKELLERYNKPKSEYPLLEPKSKEEEAPPDFKKIPVEPEEDMLLFFMNYSKLTDWERDILSIVREETLYFLPQIETKIMNEGWASFWHYNILNKLNLEQGLHFEFLKRHNQVIRPVLGQLNPYYIGFRIFEDLKKRYEDDPKKIFEVREVERDQSFIRRYLTRELCEEMNLFEYAKIGNSYIVTEVSDEEGWKKIRDTIANNVGLAGIPVIKVAEWVQKDNTLVLEHEYDGREIELSYAYETMKHIVDLWDGKVMLGTVIDNKKKIIVCNEQKKVTLTDG”, the “soluble on expression in E. coli” value was “not soluble”.
For “MAFESSKSYYSIGEVSRISGIPAYLLRYWEDYFSELAPARDTRGNRRYTNRDIAMVLNIKDLVYEKGYKLNKASQMVKGGKVDHDGADHKTNEILKLQKQLLREQKEYEITGERRRMLLLEIKDEIEDILELLG”, the “soluble on expression in E. coli” value is on record as “not soluble”.
To “MAFICELDEQWSYVGSKARQHWLGYAYNTKTGGVLAYTFGPRTDQTCRELLALLTPFNIGMLTSDDWGSYGREVPKNKHLTGKIFTQRIERNNLTLRTRIKRLGRKTICFSRSVEIHEKVIGAFIEKHMFYLEHHHHHH” belongs “soluble”; to “MAFLKIDNGELLKNIRQFAKKNGLTLAEVATLAGLSASAIYSWKKHTPSVGTLKEVAQVLGTSYTKLVGKDKEPTAKATNAAAVDLKKVIENKKNQFEYDGQPITNEQMKIIRNVLKSMFKTPRL”, “not soluble”.
To “MAFSIPPLPWGYDGLAAKGISKEQVTFHYDKHHMGYVTKLNAAANSNPALAAKSVEEIIRTEKGPIFNLAAQIFNHNFYWESMSPNGGGEPSGKLAEAIRASFGSFAKFKEEFTNAAVGHFGSGWAWLVQDTTTKKLKVFQTHDAGCPLTEADLKPILTCDVWEHAYYIDYKNDRPAYVQTFWNVVNWDHAENQFTR” belongs “soluble”; to “MAFYLPDWSCCGLWLFGRPRNRYSQLPEEPETFECPDRWRAEIDLGLPPGVQVGDLLRNEQTMGSLRQVYLLAVQANSITDHLKRFDAVRVPESCRGVVEAQVAKLEAVRSVIWNTMISLAVSGIEMDENGLKALLDKQAGDSLALMEMEKVATALKMDETGAWAQEISAVVSSVTAPSASAPFINSAFEPEVPTPVLAPPPVVRQPEHSGPTELALT”, “not soluble”; to “MAGDPMGSKNESTASKASGTASEKKKIEYLDKTYEVTVPTDKIAITGSVESMEDAKLLDVHPQGAISFSGKFPDMFKDITDKAEPTGEKMEPNIEKILEMKPDVILASTKFPEKTLQKISTAGTTIPVSHISSNWKENMMLLAQLTGKEKKAKKIIADYEQDLKEIKTKINDKAKDSKALVIRIRQGNIYIYPEQVYFNSTLYGDLGLKAPNEVKAAKAQELSSLEKLSEMNPDHIFVQFSDDENADKPDALKDLEKNPIWKSLKAVKEDHVYVNSVDPLAQGGTAWSKVRFLKAAAEKLTQNLEHHHHHH”, “soluble”.
As to “MAGDPMNIDYSVLKKYPLCDRCFGRLYGKLIRSSNFDRGHALKLAKAIELEEDLRTALEKMNETPENSEVNPTDLEKLEEIKELMYALHKTGTSGIKLDLIDDIEKYETKFKNEAEYEKNEECDELCPWCKGIFEPENIEKVAENVVEALSEYEFDSFLVGTKLPKRFKELENEIETPFMESIRQEFGRELGKVVVPLIKRRVDKENPDIVVMVNPYNQKVTLQVNPVFIKGRYKKLVRGIPQSHWDCRSCRGKGCEKCNFTGKQYMTSVEEIIAEPFMDVMKGSSEALHGAGREDIDVRMLGHGRPFVIEIKEPKIRKVNLEELASKVNESGNVEIINVEYGVKKDVHFFKNEPHKKTYLAHVECEEKVSNEEVAELVKKLEDLTIDQRTPDRVSHRRADLVRVRKVYKAWPHMIDDYNFELKIFCDGGLYIKELINSDEGRTTPSVSELLNKKCICKFLDVLDVHDYEDAENILEHHHHHH”, the “soluble on expression in E. coli” value is recorded as “soluble”.
